Among the data in US20080293626A1, “Pigment epithelium-derived factor as a therapeutic agent for vascular leakage” (The Johns Hopkins University, priority 2003, published 2008) are inhibition of VEGF stimulated endothelial cell migration (BRCEC microchemotaxis chamber), IC50 values, retold here.

The experiment has as its target PEDF receptor (unidentified cell surface receptor on bovine retinal capillary endothelial cells). As to the kind of experiment: cell-based or functional assay.

Substance “Recombinant human pigment epithelium-derived factor (PEDF) (from UniProt P36955 20-418) (ligand)” registered an inhibition of VEGF stimulated endothelial cell migration (BRCEC microchemotaxis chamber), IC50 of 0.5 nM.
